Sequences and labels used below:
B1: Regulator of nonsense transcripts 1 (Homo sapiens), Q92900-2 (parent)
chain: MSVEAYGPSSQTLTFLDTEEAELLGADTQGSEFEFTDFTLPSQTQTPPGGPGGPGGGGAGGPGGAGAGAAAGQLDAQVGPEGILQNGAVDDSVAKTSQLLAELNFEEDEEDTYYTKDLPIHACSYCGIHDPACVVYCNTSKKWFCNGRGNTSGSHIVNHLVRAKCKEVTLHKDGPLGETVLECYNCGCRNVFLLGFIPAKADSVVVLLCRQPCASQSSLKDINWDSSQWQPLIQDRCFLSWLVKIPSEQEQLRARQITAQQINKLEELWKENPSATLEDLEKPGVDEEPQHVLLRYEDAYQYQNIFGPLVKLEADYDKKLKESQTQDNITVRWDLGLNKKRIAYFTLPKTDSDMRLMQGDEICLRYKGDLAPLWKGIGHVIKVPDNYGDEIAIELRSSVGAPVEVTHNFQVDFVWKSTSFDRMQSALKTFAVDETSVSGYIYHKLLGHEVEDVIIKCQLPKRFTAQGLPDLNHSQVYAVKTVLQRPLSLIQGPPGTGKTVTSATIVYHLARQGNGPVLVCAPSNIAVDQLTEKIHQTGLKVVRLCAKSREAIDSPVSFLALHNQIRNMDSMPELQKLQQLKDETGELSSADEKRYRALKRTAERELLMNADVICCTCVGAGDPRLAKMQFRSILIDESTQATEPECMVPVVLGAKQLILVGDHCQLGPVVMCKKAAKAGLSQSLFERLVVLGIRPIRLQVQYRMHPALSAFPSNIFYEGSLQNGVTAADRVKKGFDFQWPQPDKPMFFYVTQGQEEIASSGTSYLNRTEAANVEKITTKLLKAGAKPDQIGIITPYEGQRSYLVQYMQFSGSLHTKLYQEVEIASVDAFQGREKDFIILSCVRANEHQGIGFLNDPRRLNVALTRARYGVIIVGNPKALSKQPLWNHLLNYYKEQKVLVEGPLNNLRESLMQFSKPRKLVNTINPGARFMTTAMYDAREAIIPGSVYDRSSQGRPSSMYFQTHDQIGMISAGPSHVAAMNIPIPFNLVMPPMPPPGYFGQANGPAAGRGTPKGKTGRGGRQKNRFGLPGPSQTNLPNSQASQDVASQPFSQGALTQGYISMSQPSQMSQPGLSQPELSQDSYLGDEFKSQIDVALSQDSTYQGERAYQHGGVTGLSQY

One assay covers variants of B1. The conditions noted are these: with eif3a_human EIF3A.
With G495R;G497E, the “effect of a mutation on the interaction” value is reported as “increasing interaction”.

The variants in another assay derive from B1. The conditions noted are these: with eif3a_human EIF3A. This is another data set of the same source.
As for G495R;G497E, the “effect of a mutation on the interaction” value is on record as “increasing interaction”.

The record behind these values is IntAct's records for PubMed 18423202.
